Test results: patent US20240368655

Target: Concanavalin A (UniProt P02866)
Experiment: SELEX
Settings: FANA copy of the listed DNA template; every U is C8-alkyne-FANA U conjugated to 2-azidoethyl-alpha-D-mannose; displayed on its encoding dsDNA; round 3 recovery by qPCR; round 1 about 0.14%; PBS, 2.5 mM MgCl2, 1 mM CaCl2, 0.1 mM MnCl2, 0.01% Tween 20, room temperature

## CCTATAGCCGTTTGCACAAGNNNNNNNNNNNNNNNNNNNNNNNNNNNNNNNNNNNNNNNNCCCGTACCCGTTAAGATTACTTCGGACTGGGATC [Man-cmFANA N40 library, round 3]
  binding: 47 % recovery
